Assay results reported in patent US20200362047A1 (CRESCENDO BIOLOGICS, published 2020).
Numbering of substitutions follows the chain as printed.

T1: mouse CD137Fc protein (Acro Biosystems 41B-M5258) (mouse, UniProt P20334 24-187)
T1 construct: Bought protein; also called mouse CD137 protein; not shown: Fc tag, detected with anti human-Fc
T1 sequence (looked up): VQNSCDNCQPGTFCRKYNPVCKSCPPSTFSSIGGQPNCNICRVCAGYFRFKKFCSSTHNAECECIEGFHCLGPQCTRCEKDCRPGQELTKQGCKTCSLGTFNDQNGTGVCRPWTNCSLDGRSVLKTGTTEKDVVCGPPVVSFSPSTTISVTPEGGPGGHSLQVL

T2: rhesus CD137Fc recombinant protein (Sino Biologicals cat no. 90847-K02H) (rhesus; human, UniProt H9Z8K9 24-186)
T2 construct: Bought protein; also called rhesus CD137-human IgG1 Fc tagged protein; not shown: human IgG1 Fc tag
T2 sequence: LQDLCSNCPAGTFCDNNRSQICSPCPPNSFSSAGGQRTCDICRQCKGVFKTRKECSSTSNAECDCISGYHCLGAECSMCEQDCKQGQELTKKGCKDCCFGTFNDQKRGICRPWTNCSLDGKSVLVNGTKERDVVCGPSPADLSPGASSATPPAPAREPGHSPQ

B1: Humabody VH 1.1 (VHH)
VH: EVQLVESGGGLVQPGGSLRLSCAASGFTFSSHWMTWFRQAPGKGLEWVAHIKEDGSEKYYEDSVEGRFTVSRDNAKNSVYLQMNSLRAEDTAVYYCARGGDGYSDSHFGVDVWGQGTTVTVSSHHHHHH
notes: human single VH domain; also called single domain antibody 1.1
B2: Humabody VH 1.78 (VHH)
VH: QVQLVESGGGLVQPGGSLRLSCAATGFTLSNYWMNWVRQAPGKGLEWVANINQDGSERYYVDSVKGRFTISRDNAKNSLYLQMSSLRAEDTAVYFCARGGEGYGVDHYGLDVSGQGTTVTVSSHHHHHH
notes: human single VH domain
B3: Humabody VH 1.11 (VHH)
VH: EVQLVESGGGLVQPGGSLRLSCEASGFTFSDYWMNWARQAPGKGLEWVANIKEDGSEKYYVDSVEGRFTISRDNAKNSTYLQMNSLRAEDTAVYYCARGGAGYSMSHYGMDVWGQGTTVTVSSHHHHHH
notes: human single VH domain
B4: Humabody VH 1.18 (VHH)
VH: EVQLVESGGGLVQPGGSLRLSCAASGFTFSTHWMNWARQAPGKELEWVANINQDGSEKYYVDSVEGRFTISRDNANNSLYLQMNSLRAEDTAVYYCARGGVGYGDSHFGMDVWGLGTTVTVSSHHHHHH
notes: human single VH domain
B5: Humabody VH 1.52 (VHH)
VH: EVQLVESGGGLVQIGGSLRLSCAASGFTFSKYWMIWVRQAPEKGLEWVANINQDGSEKYYVDSVEGRFTISRDNANNSLFLQMNSLRAEDTAVYYCARGGDDYSISHFGMDVSGQGTRVTVSSHHHHHH
notes: human single VH domain
B6: Humabody VH 2.1 (VHH)
VH: EVQLVESGGGLVKPGGSLRVSCAASGFTFSDYYMSWFRQAPGKGLEWVSYISGSGDIIDYADSVKGRFTISRDNAKNSLYLQMNNLRAEDTAVYHCAREDSRLTGTTDFDNWGQGTLVTVSSHHHHHH
notes: human single VH domain
B7: Humabody VH 2.8 (VHH)
VH: B6 VH with V20L, T28A, Y50H, D56T, I57T, N85S, L103M, T104P
notes: human single VH domain
B8: Humabody VH 2.14 (VHH)
VH: EVQLVESGGGLVKPGGSLRLSCAASGFTFSDYYMTWFRQAPGKGLEWISYISGSGDTIDYAESVKGRFTISRDNAKNSLYLQMNSLRAEDTAVYYCAREDIRMPGTTDFDHWGQGTLVTVSSHHHHHH
notes: human single VH domain
B9: Humabody VH 2.9 (VHH)
VH: B8 VH with Y95H, I101S, M103I, P104A, H111N, Q114P
notes: human single VH domain

target: T3, human CD137 expressed on the surface of CHO cells (human, UniProt Q07011 24-255); test: FMAT, CHO human CD137 cells
T3 construct: Also used for the Jurkat reporter cells that express human CD137 (functional rows); also called CHO human CD137 cells; CHO huCD137
Outline: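 His-tagged VH molecules, serially diluted, were incubated for at least 2 h at room temperature with 2000 DRAQ5-stained cells/well, 1.5 nM anti-His and Alexa Fluor-488 anti-mouse secondary in PBS/0.1% BSA/0.05% azide, pH 7.4. FMAT read at 488/640 nm excitation; binding is the FL2 median fluorescence of FL5-gated cells.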

T3 sequence (Q07011 24-255 limits assumed): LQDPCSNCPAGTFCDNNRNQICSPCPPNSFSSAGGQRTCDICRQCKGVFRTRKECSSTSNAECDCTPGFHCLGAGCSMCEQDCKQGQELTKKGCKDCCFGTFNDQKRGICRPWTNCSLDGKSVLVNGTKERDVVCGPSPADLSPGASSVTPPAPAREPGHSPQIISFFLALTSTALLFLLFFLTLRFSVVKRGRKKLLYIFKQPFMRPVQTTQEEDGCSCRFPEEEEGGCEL

| EC50 [nM] | Binder |
| --- | --- |
| 0.22 | B1 |
| 0.32 | B2 |
| 0.27 | B3 |
| 0.31 | B4 |
| 0.37 | B5 |
| 0.65 | B6 |
| 0.19 | B7 |
| 0.31 | B8 |
| 0.18 | B9 |

target: T1, mouse CD137Fc protein (Acro Biosystems …); test: HTRF binding assay
Protocol: (§1) Binding to human CD137Fc recombinant protein (Acro Biosystems 41B-H5258), rhesus CD137Fc recombinant protein (Sino Biologicals cat no. 90847-K02H) and mouse CD137Fc protein (Acro Biosystems 41B-M5258) was measured using an HTRF Binding assay format. All reagents and serially diluted VH were prepared in assay buffer containing PBS, 0.1% BSA and 0.4M Potassium Fluoride. Samples or assay buffer (non-specific binding) were incubated with 0.5 nM human, rhesus or mouse CD137, 1 nM Anti human-Fc Cryptate PAb (Cisbio cat. no. 61HFCKLB) and 20 nM anti His-D2 (CisBio cat no 61HISDLA) in black 384-shallow well assay plates for a minimum of 3 hours at room temperature. Time-resolved fluorescent emission at 620 nm and 665 nm was measured following excitation at 337 nm on the BMG PHERAstar plate reader. The HTRF ratio were calculated ((665 nm emission/620 nm emission)*10000) and the data corrected for (non-specific binding) to give the specific binding signal. VH bound to human and rhesus CD137 but not to mouse CD137 protein.

| binding result | Binder |
| --- | --- |
| no binding | B1 |
| no binding | B2 |
| no binding | B3 |
| no binding | B4 |
| no binding | B5 |
| no binding | B6 |
| no binding | B7 |
| no binding | B8 |
| no binding | B9 |

target: T2, rhesus CD137Fc recombinant protein …; test: HTRF binding assay
Protocol: as §1

| EC50 [nM] | Binder |
| --- | --- |
| 1.1 | B1 |
| 0.14 | B2 |
| 6.8 | B3 |
| 5.1 | B4 |
| 0.45 | B5 |
| 1.6 | B7 |
| 1.3 | B8 |
| 1.2 | B9 |

target: T4, human CD137-human Fc chimeric protein (Acro Biosystems cat no. 41B-H5258) (human, UniProt Q07011 24-186); test: HTRF binding assay
T4 construct: Bought protein; The Octet Protein G and Biacore experiments name no catalogue number; also called human CD137Fc recombinant protein; human CD137-Fc recombinant protein; not shown: human IgG1 Fc tag
Protocol: as §1

| EC50 [nM] | Binder |
| --- | --- |
| 0.26 | B1 |
| 0.21 | B2 |
| 0.58 | B3 |
| 0.45 | B4 |
| 0.48 | B5 |
| 3.7 | B6 |
| 3.1 | B7 |
| 1.2 | B8 |
| 1.3 | B9 |

target: T5, CD137 on pre-stimulated human CD8+ T cells (human, UniProt Q07011 24-255); test: flow cytometry, PMA/ionomycin-stimulated human CD8+ T cells, mean of 2-3 donors
T5 construct: also called pre-stimulated CD8+ cells; primary T cells
Outline: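 PMA/ionomycin-activated (48-72 h) CD8+ T cells purified from PBMC by negative selection were incubated with serially diluted His-tagged VH for 30 mins-1 hour at 4° C. Bound VH was detected via anti-His plus Alexa Fluor-488 secondary, with live/dead near-IR gating, and read by flow cytometry after fixation.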

T5 sequence (Q07011 24-255 limits assumed): as above

| EC50 [nM] | Binder |
| --- | --- |
| 0.22 | B1 |
| 0.61 | B2 |
| 0.89 | B3 |
| 1.9 | B4 |
| 0.88 | B5 |
| 2.4 | B6 |
| 6.5 | B7 |
| 0.61 | B8 |
| 0.6 | B9 |

target: T4, human CD137-human Fc chimeric protein …; test: BLI (Octet RED384), CD137-Fc on Protein G sensors, 1:1 model
Protocol: Binding kinetics of purified VH, bivalent VH and trivalent VH molecules were measured on a ForteBio Octet RED 384 instrument. CD137-Fc tagged protein was diluted to 3 μg/ml in kinetics buffer (0.1% BSA, 0.02% Tween, 1×PBS) and coupled to Protein G biosensors (ForteBio cat no. 18-5082) via the Fc tag. VH were serially diluted (typically 1:2 dilution series starting with 50 nM, VH at the highest concentration) and binding to the CD137-Fc-coupled Protein G biosensors measured. Binding kinetics were determined from the (blank subtracted) sensor gram trace using 1:1 binding models and ForteBio Octet Data Analysis 9.0 software. Example kinetic and binding affinity data obtained is shown Table 10 (monovalent VH) and FIG. 1 (bivalent and trivalent molecules).

| Kd [nM] | koff [s⁻¹] | kon [M⁻¹ s⁻¹] | Binder |
| --- | --- | --- | --- |
| 0.34 | 0.00034 | 989000 | B1 |
| 0.72 | 0.000219 | 304000 | B2 |
| 2.5 | 0.00148 | 596000 | B3 |
| 0.12 | 0.000625 | 5.18e+06 | B4 |
| 3.2 | 0.000963 | 300000 | B5 |
| 2.9 | 0.00388 | 1.35e+06 | B6 |
| 5.3 | 0.00616 | 1.17e+06 | B7 |
| 0.96 | 0.00157 | 1.63e+06 | B8 |
